Substitutions are numbered along the chain they refer to. Names and notes keep the numbering of the source. Blank lines part the entries; values can stand above or below the binder they belong to. Where no end group is shown, it is not given here. [ ]: non-standard residue; d: D form. SeMet = C[Se]CC[C@H](N)C(=O)O
Columns and labels:
[1] = target: T1, CED-4 apoptosome (full-length wild-type CED-4) (C. elegans, UniProt P30429 1-549); assay: SEC
T1 sequence (looked up): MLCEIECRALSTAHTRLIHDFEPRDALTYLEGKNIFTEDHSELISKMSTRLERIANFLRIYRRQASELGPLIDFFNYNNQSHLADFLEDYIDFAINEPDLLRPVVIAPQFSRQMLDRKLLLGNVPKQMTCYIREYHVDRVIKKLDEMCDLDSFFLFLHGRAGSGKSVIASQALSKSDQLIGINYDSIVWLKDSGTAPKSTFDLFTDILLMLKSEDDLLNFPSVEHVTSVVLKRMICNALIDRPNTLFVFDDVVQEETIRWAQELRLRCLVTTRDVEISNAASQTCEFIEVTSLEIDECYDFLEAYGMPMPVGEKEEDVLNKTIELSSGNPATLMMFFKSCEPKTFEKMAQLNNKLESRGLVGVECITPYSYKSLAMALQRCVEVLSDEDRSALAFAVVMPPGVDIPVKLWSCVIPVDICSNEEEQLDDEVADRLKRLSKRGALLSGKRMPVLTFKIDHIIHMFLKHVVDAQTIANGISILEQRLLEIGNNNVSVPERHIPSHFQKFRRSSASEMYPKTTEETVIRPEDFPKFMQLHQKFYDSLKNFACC

[2] = target: T1, CED-4 apoptosome (full-length wild-type …); assay: crystal structure
crystal structure = target: the molecule itself; assay: crystal structure

binding result [1]: binds
B1: CED-3 (residues 198–503 and C358S) (domain or fragment, C. elegans, UniProt P42573 198-503, looked up)
chain: NRSFSKASGPTQYIFHEEDMNFVDAPTISRVFDEKTMYRNFSSPRGMCLIINNEHFEQMPTRNGTKADKDNLTNLFRCMGYTVICKDNLTGRGMLLTIRDFAKHESHGDSAILVILSHGEENVIIGVDDIPISTHEIYDLLNAANAPRLANKPKIVFVQASRGERRDNGFPVLDSVDGVPAFLRRGWDNRDGPLFNFLGCVRPQVQQVWRKKPSQADILIAYATTAQYVSWRNSARGSWFIQAVCEVFSTHAKDMDVVELLTEVNKKVACGFQTSQGSNILKQMPEMTSRLLKKFYFWPEARNSAV

stoichiometry N [2]: 8 L2′ loop fragments per CED-4 apoptosome
B2: CED-3 L2′ loop fragment (residues 389–409) (peptide, UniProt P42573 389-409, looked up)
peptide: GPLFNFLGCVRPQVQQVWRKK

binding result [2]: binds
B3: CED-3 L2′ loop fragment (residues 389–409) with Leu391 replaced by selenomethionine (peptide, UniProt P42573 389-409, looked up)
peptide: GP[SeMet]FNFLGCVRPQVQQVWRKK

binding result [2]: binds
B4: CED-3 L2′ loop fragment (residues 389–409) with Leu395 replaced by selenomethionine (peptide, UniProt P42573 389-409, looked up)
peptide: GPLFNF[SeMet]GCVRPQVQQVWRKK

binding result [2]: binds
B5: CED-3 L2′ loop fragment (residues 389–409) with Leu391 and Leu395 replaced by selenomethionine (peptide, UniProt P42573 389-409, looked up)
peptide: GP[SeMet]FNF[SeMet]GCVRPQVQQVWRKK

binding result [1]: binds
B6: two-chain CED-3 (residues 198–374, 389–503, and C358A) (domain or fragment, C. elegans)
chain 1: NRSFSKASGPTQYIFHEEDMNFVDAPTISRVFDEKTMYRNFSSPRGMCLIINNEHFEQMPTRNGTKADKDNLTNLFRCMGYTVICKDNLTGRGMLLTIRDFAKHESHGDSAILVILSHGEENVIIGVDDIPISTHEIYDLLNAANAPRLANKPKIVFVQAARGERRDNGFPVLDSVD
chain 2: GPLFNFLGCVRPQVQQVWRKKPSQADILIAYATTAQYVSWRNSARGSWFIQAVCEVFSTHAKDMDVVELLTEVNKKVACGFQTSQGSNILKQMPEMTSRLLKKFYFWPEARNSAV

B7: two-chain caspase domain of CED-3 (residues 198–374, 389–503, and C358S) (domain or fragment, C. elegans)
chain 1: B6 chain 1 with A161S
chain 2: B6 chain 2
stoichiometry N (crystal structure): 2

binding result [1]: binds
B8: two-chain CED-3 with partial deletion of the L2 loop (residues 365–374) (domain or fragment, C. elegans)
chain 1: NRSFSKASGPTQYIFHEEDMNFVDAPTISRVFDEKTMYRNFSSPRGMCLIINNEHFEQMPTRNGTKADKDNLTNLFRCMGYTVICKDNLTGRGMLLTIRDFAKHESHGDSAILVILSHGEENVIIGVDDIPISTHEIYDLLNAANAPRLANKPKIVFVQAARGERRD
chain 2: B6 chain 2

— article PMC3792479 (Genes & Development, 2013)
